One test deals with IFNλR1 (Homo sapiens) (UniProt Q8IU57). Particulars: cited from earlier work.
Test [1] has as its target T1, IFNλR1 (UniProt Q8IU57 21-226, biotin (in SPR, MST and yeast staining); fluorescent dye NanoTemper NT-L020 (in MST)). Nature of the test: SPR; Biacore T200, 22 °C, equilibrium method; ~850 RU biotinylated IFNλR1 captured on a Biotin CAPture chip, IFNλ4 as analyte, nine points; 10 mM MES pH 5.6, 500 mM NaCl, 10% glycerol, 0.05% Tween20; 1:1 binding model. As to conditions: both partners purified.

The target of test [2] is T1, IFNλR1. Kind of test: cell-based or functional assay.
The target in a further test is T2, IFNλ3 (UniProt Q8IZI9 34-196).
T2 chain: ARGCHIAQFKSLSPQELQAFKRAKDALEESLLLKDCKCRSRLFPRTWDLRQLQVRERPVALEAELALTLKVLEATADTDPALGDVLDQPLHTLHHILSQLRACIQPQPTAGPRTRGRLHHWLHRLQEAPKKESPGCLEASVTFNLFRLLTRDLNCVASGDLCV
Kind of test: MST.

Another test has as its target T3, IFNλ4 (human, UniProt K9M1U5-1 22-179).
T3 chain: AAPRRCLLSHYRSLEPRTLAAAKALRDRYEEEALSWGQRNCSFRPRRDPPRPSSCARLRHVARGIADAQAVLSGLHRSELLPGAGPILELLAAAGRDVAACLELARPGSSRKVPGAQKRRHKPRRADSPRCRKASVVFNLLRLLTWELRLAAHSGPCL
Nature of the test: MST.

In the case of IFNλ3 (from UniProt Q8IZI9), the Kd – broadly, the constant that tells how readily two partners part at equilibrium – in the test with IFNλR1 (Homo sapiens) is 850 nM.

B1: IFNλ4 (ligand, human, UniProt K9M1U5-1 22-179, looked up)
chain: T3 chain
notes: codon-optimised gene; also called interferon lambda 4; source: insect Hi5 cells (baculovirus), secreted as sfGFP-10RB-IFNλ4, cleaved with 3C protease, purified (S75 Superdex)
As to B1, the Kd in the test with IFNλR1 [1] is 191 nM. Moreover, in the test with IFNλR1 [2], the “pSTAT1 signaling in Hap1 cells, EC50 relative to IFNλ3” value came out at 20 fold.

B2: IFNλR1 (receptor)
chain: RPRLAPPQNVTLLSQNFSVYLTWLPGLGNPQDVTYFVAYQSSPTRRRWREVEECAGTKELLCSMMCLKKQDLYNKFKGRVRTVSPSSKSPWVESEYLDYLFEVEPAPPVLVLTQTEEILSANATYQLPPCMPPLDLKYEVAFWKEGAGNKTLFPVTPHGQPVQITLQPAASEHHCLSARTIYTFSVPKYSKFSKPTCFLLEVPEAN
modifications: biotin (in SPR, MST and yeast staining); fluorescent dye NanoTemper NT-L020 (in MST)
In the case of B2, the Kd with IFNλ3 is 1580 nM; in the test with IFNλ4, 396 nM.

The values above are taken from paper PMC11742915 (Nature Communications, 2025).
